Laboratory results from publication PMC7089733.

Target: L7Ae;Nop5;fibrillarin L113K;V223E ((printed as Pf);(printed as Pf);(printed as Pf)) (UniProt Q8U160+Q8U4M1+Q8U4M2)
Test: NMR PRE + SAXS/SANS ensemble
Conditions: half-loaded mono-RNP, 50 mM NaPi, 500 mM NaCl, pH 6.6, 100% D2O (NMR), 55 C, SANS in 42%:58% D2O:H2O, substrate at 1.2-1.25 molar equivalents, scale: % [on,off] conformers

Sequence	binding signal	binding signal (ddG vs substrate D' 0.86 +/- 0.55 kcal/mol)
GCGAGCAAUGAUGAGUGAUGGGCGAACUGAGCUCGAAAGAGCAAUGAUGACGGAGGUGAUCACUGAGCUCGC / GCUUCGCCCAUCAC [st-sR26 + substrate D']	66	–
GCGAGCAAUGAUGAGUGAUGGGCGAACUGAGCUCGAAAGAGCAAUGAUGACGGAGGUGAUCACUGAGCUCGC / GUAGAUCACCUCCG [st-sR26 + substrate D]	–	34
